In publication PMC7168753 (Science (New York, N.Y.), 2019):

Biological target: CH848 10.17DT stabilized SOSIP gp140 Env trimer (HIV-1)
Experiment: SPR

Binder	Kd [nM]
DH270 UCA with the improbable G57R mutation (antibody, V domains shown) VH: not shown VL: QSALTQPASVSGSPGQSITISCTGTSSDVGSYNLVSWYQQHPGKAPKLMIYEVSKRPSGVSNRFSGSKSGNTASLTISGLQAEDEADYYCCSYAGSSTVIFGGGTKLTVL	132
DH270 UCA (antibody, format not stated in the text) (antibody, V domains shown) VH: not shown VL: QSALTQPASVSGSPGQSITISCTGTSSDVGSYNLVSWYQQHPGKAPKLMIYEVSKRPSGVSNRFSGSKSGNTASLTISGLQAEDEADYYCCSYAGSSTVIFGGGTKLTVL	558
